In paper PMC10442425:

Molecular target: recombinant SARS-CoV-2 envelope (E) protein, His-tagged (SARS-CoV-2) (UniProt P0DTC4)
Assay: SPR; Biacore 8K, 25 °C, PBS-P buffer; His-tagged E protein captured on NTA chip; recombinant human CD36 injected at 400 nM to 12.5 nM, parallel kinetics; 1:1 binding model

Work on “recombinant human CD36 protein (from UniProt P16671 1-472) (receptor)” yielded a Kd of 55 nM.
